T1: fibrin (Homo sapiens, UniProt P02671)
T1 construct: Thrombin cleaves the α and γ subunits of fibrin, exposing fibrinopeptide A (Knob A) and fibrinopeptide B (Knob B)
T1 sequence (P02671 36-866 limits assumed): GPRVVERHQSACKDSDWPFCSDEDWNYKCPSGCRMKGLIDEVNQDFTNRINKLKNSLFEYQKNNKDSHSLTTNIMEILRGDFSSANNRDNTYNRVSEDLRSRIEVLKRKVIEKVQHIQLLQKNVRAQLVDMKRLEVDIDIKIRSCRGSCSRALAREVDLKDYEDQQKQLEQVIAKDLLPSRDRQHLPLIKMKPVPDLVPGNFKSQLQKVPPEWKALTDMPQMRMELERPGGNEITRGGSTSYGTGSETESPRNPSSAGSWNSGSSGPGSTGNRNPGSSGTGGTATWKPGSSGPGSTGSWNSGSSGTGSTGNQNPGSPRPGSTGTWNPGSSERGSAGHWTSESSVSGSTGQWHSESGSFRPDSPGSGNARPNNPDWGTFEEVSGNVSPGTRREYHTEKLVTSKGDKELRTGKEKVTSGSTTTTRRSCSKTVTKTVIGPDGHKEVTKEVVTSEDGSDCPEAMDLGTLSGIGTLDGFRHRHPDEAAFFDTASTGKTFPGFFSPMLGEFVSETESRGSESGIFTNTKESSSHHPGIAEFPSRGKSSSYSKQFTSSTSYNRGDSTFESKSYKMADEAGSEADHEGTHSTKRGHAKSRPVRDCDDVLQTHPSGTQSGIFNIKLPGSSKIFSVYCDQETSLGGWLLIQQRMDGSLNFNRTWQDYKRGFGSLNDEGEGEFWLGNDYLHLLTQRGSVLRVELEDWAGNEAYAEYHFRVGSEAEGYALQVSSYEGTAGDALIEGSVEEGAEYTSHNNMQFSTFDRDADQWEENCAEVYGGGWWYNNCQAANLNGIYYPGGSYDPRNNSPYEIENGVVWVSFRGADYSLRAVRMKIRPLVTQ
T1 sequence (P02675 45-491 partner limits assumed): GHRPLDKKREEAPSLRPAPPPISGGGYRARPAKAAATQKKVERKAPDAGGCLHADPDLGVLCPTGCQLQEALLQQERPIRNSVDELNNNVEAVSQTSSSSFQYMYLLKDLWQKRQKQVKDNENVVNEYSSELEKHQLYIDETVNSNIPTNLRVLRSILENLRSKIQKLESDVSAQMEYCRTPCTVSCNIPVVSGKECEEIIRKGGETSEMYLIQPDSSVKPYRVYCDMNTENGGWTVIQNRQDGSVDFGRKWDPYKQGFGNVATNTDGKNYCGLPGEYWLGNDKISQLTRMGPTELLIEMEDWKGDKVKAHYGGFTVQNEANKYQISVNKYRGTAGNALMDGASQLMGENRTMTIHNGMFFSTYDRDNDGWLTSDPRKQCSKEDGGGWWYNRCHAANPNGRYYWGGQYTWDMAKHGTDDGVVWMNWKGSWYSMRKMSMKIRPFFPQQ
T1 sequence (P02679 27-453 partner): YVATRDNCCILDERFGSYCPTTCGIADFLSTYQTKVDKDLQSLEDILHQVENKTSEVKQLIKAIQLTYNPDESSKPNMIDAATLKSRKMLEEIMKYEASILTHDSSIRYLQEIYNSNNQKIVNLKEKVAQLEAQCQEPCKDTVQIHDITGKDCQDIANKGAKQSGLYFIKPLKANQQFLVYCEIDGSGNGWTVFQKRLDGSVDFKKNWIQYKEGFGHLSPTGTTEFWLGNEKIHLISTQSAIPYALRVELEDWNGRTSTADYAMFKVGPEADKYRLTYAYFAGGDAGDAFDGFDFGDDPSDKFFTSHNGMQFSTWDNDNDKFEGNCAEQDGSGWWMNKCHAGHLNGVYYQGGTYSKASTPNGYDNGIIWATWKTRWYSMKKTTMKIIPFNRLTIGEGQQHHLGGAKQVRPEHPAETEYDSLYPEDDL

T2: fibrin aggregates (Homo sapiens, UniProt P02671)
T2 construct: Thrombin cleaves the α and γ subunits of fibrin, exposing fibrinopeptide A (Knob A) and fibrinopeptide B (Knob B)
T2 sequence (P02671 36-866 limits assumed): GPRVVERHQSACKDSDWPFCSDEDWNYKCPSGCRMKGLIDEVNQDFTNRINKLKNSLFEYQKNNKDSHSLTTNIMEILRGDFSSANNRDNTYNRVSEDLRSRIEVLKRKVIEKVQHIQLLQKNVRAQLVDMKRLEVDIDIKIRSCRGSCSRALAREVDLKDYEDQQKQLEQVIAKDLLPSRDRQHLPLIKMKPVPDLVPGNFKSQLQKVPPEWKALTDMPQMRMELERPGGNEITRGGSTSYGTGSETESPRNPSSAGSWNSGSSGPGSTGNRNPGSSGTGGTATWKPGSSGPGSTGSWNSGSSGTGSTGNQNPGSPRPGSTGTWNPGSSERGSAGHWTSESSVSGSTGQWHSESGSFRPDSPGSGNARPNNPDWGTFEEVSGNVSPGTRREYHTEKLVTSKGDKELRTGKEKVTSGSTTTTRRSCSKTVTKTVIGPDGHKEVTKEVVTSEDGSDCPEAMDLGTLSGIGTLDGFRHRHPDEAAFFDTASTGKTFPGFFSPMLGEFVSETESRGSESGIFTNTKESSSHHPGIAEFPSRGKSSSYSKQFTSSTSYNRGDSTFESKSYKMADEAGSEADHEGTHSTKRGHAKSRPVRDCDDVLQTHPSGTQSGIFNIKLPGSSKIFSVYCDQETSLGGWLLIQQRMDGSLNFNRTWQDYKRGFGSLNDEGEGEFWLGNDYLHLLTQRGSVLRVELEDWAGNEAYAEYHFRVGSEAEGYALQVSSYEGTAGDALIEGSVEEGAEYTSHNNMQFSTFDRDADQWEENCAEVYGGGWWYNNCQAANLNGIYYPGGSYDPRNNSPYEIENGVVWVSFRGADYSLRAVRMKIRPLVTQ
T2 sequence (P02675 45-491 partner limits assumed): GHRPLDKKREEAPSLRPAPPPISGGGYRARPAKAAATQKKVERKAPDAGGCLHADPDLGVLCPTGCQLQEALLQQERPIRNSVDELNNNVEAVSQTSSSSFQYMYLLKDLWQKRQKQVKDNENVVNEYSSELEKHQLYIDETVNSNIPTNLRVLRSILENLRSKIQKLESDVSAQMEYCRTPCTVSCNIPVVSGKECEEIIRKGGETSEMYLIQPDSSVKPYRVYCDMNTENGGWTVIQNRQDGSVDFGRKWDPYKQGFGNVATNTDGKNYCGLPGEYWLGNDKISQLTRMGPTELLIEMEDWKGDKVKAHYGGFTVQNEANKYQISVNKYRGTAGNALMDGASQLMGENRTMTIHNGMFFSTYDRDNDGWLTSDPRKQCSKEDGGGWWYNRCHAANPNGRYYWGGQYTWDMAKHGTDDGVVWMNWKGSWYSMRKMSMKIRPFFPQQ
T2 sequence (P02679 27-453 partner): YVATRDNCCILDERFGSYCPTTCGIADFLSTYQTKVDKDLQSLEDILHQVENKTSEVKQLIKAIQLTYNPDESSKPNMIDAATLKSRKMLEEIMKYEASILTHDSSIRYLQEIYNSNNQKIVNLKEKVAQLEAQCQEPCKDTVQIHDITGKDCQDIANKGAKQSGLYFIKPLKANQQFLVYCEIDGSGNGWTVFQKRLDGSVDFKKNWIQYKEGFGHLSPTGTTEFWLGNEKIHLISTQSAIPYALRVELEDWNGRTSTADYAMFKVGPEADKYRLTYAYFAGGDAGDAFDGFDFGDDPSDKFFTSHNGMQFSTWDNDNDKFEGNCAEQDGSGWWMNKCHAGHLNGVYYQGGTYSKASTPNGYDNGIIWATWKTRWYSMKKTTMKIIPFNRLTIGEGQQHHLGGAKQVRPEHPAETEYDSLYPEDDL

B1: FD: Fibrinogen structural domain protein of FGL1, positions 48-290 of SEQ ID No. 1 (SEQ ID No. 3) (protein)
chain: TVIDLGSKRQYADCSEIFNDGYKLSGFYKIKPLQSPAEFSVYCDMSDGGGWTVIQRRSDGSENFNRGWKDYENGFGNFVQKHGEYWLGNKNLHFLTTQEDYTLKIDLADFEKNSRYAQYKNFKVGDEKNFYELNIGEYSGTAGDSLAGNFHPEVQWWASHQRMKFSTWDRDHDNYEGNCAEEDQSGWWFNRCHSANLNGVYYSGPYTAKTDNGIVWYTWHGWWYSLKSVVMKIRPNDFIPNVI
B2: FD mutant: FD with tryptophan at key positions 204 and 269 mutated to alanine (protein)
chain: TVIDLGSKRQYADCSEIFNDGYKLSGFYKIKPLQSPAEFSVYCDMSDGGGWTVIQRRSDGSENFNRGWKDYENGFGNFVQKHGEYWLGNKNLHFLTTQEDYTLKIDLADFEKNSRYAQYKNFKVGDEKNFYELNIGEYSGTAGDSLAGNFHPEVQWAASHQRMKFSTWDRDHDNYEGNCAEEDQSGWWFNRCHSANLNGVYYSGPYTAKTDNGIVWYTWHGAWYSLKSVVMKIRPNDFIPNVI

Tests used:
fibrin [1] = target: T1, fibrin; assay: fibrin aggregation, light scattering / A350 kinetic curve; format: biochemical; details: 3.3 μM Fibrinogen, 2.5 U/ml thrombin, ±5 mM CaCl2, 25° C., different doses
Experimental: Multifunctional enzyme marker M200PRO detected the light scattering process, and the instrument excitation light was adjusted to 350 nm and emission light to 350 nm. 3.3 μM of Fibrinogen in the control group, 3.3 μM of Fibrinogen and 2.5 U/ml of thrombin in the model group and 3.3 μM of Fibrinogen and 2.5 U/ml thrombin and different dose of Fibrinogen related protein 1 (FGL1). All the above systems were in 20 mM Tris-HCl, pH 7.4, 150 mM NaCl±5 mM CaCl2 solution in a 100 μl/well (96-well plate). The kinetic curve was measured by assaying every minute at 25° C.
Multifunctional enzyme marker M200PRO detected the light scattering process; the instrument excitation light was adjusted to 350 nm, and the emission light was adjusted to 350 nm. 3.3 μM of Fibrinogen in the control group, 3.3 μM of Fibrinogen and 2.5 U/ml of thrombin in the model group, and 3.3 μM of Fibrinogen and 2.5 U/ml thrombin and different dose of fibrinogen structural domain (FD). The above systems were in 20 mM Tris-HCl, pH 7.4, 150 mM NaCl±5 mM CaCl2 solution. The kinetic curves were measured at 25° C. by detecting the A350 absorption values every minute.

fibrin aggregates [2] = target: T2, fibrin aggregates; assay: synergistic dissolving of fibrin aggregates with tissue plasminogen activator tPA; format: biochemical; details: 2 nM tPA plus different doses, added after 1 h of fibrin formation
Experimental: The Multifunctional enzyme marker M200PRO detected the light scattering process, and the excitation light of the instrument was adjusted to 350 nm and the emission light to 350 nm. 3.3 μM of Fibrinogen in the control group, 3.3 μM of Fibrinogen and 2.5 U/ml of thrombin in the model group. The above systems were all set up in 20 mM Tris-HCl, pH 7.4, 150 mM NaCl ±[…] CaCl2 solution in a 100 μl/well (96-well plate). After 1 h of gel-like fibrin formation, 100 μl, 2 nM tissue plasminogen activator tPA and different doses of Fibrinogen like protein 1 (FGL1) were added. Kinetic curves were measured at 25° C. by detecting A350 absorption values every minute.
The control group was a reagent control, and the administered groups were 2 nM tissue plasminogen activator tPA, different doses of Fibrinogen like protein 1 (FGL1) alone groups, and groups in combination with other reagents. Kinetic curves were measured at 37° C. using a multifunctional enzyme marker M200PRO to detect the absorption values of the 510 nm excitation light every minute.
The Multifunctional enzyme marker M200PRO detected the light scattering process, and the excitation light of the instrument was adjusted to 350 nm and the emission light to 350 nm. […] Kinetic curves were measured at 25° C. by detecting A350 absorption values every minute. […]

fibrin aggregates [3] = target: T2, fibrin aggregates; assay: synergistic dissolving of fibrin aggregates with urokinase uPA; format: biochemical
[4] = tested on: thrombin-induced thrombosis model; assay: thrombin-induced thrombosis model, plasmid injection and overexpression; format: in vivo, BALB/c mice; details: expression plasmid 100 μg per mouse tail vein, overexpression; thrombin 15 U per mouse; deaths within 1 hour
Experimental: Construct FGL1 expression plasmid with pcDNA3.1 vector, inject the plasmid into the tail vein of mice, 100 μg/2 ml PBS/per mouse, extract the plasma of the mice after 18 hours, and detect the overexpressed FGL1 content in the plasma by ELISA;
Thrombin 15 U/200 μl PBS/per mouse was injected into the tail vein for modelling, and the number of mice in each group that died within 1 hour after injection was recorded to calculate the protection rate of Fibrinogen like protein 1 (FGL1) overexpression.
The specific operation methods were the same as those described previously for the protective effects of overexpression of FGL1.

fibrin [5] = target: T1, fibrin; assay: fibrin aggregation observed by scanning electron microscopy; format: biochemical; details: FIG. 12
mouse thrombus = mouse thrombus morphology observed by scanning electron microscopy; format: in vivo, mice; details: FIG. 14
aggregated fibrin = assay: cleavage of aggregated fibrin; format: biochemical; details: FIG. 27
Source text: Mutation of certain key sites in this protein's amino acid sequence can also enhance its function of inhibiting thrombosis.

Row | Molecule | effect on fibrin aggregation (fibrin [1]) | dissolving fibrin aggregates together with tPA (fibrin aggregates [2]) | dissolving fibrin aggregates together with urokinase uPA (fibrin aggregates [3]; 800 U/ml uPA plus different doses of FGL1) | survival rate of mice [4] | structure of thrombus formed by fibrin aggregation (fibrin [5]) | dissolving fibrin aggregates together with urokinase uPA (fibrin aggregates [3]; 2800 U/ml uPA plus different doses of FD (800 U/ml in thrombus lysis)) | morphology of mouse thrombus (mouse thrombus) | cleavage of aggregated fibrin, mutant compared to unmutated form (aggregated fibrin)
1 | FGL1: Fibrinogen like protein 1, amino acid sequence SEQ ID No. 1, expressed in eukaryotic cells; given as pcDNA3.1 expression plasmid in Example 6 | inhibits fibrin aggregation | synergistically dissolving fibrin aggregates | synergistically dissolving fibrin aggregates | significantly increasing the survival rate of mice | – | – | – | –
2 | B1 | inhibits fibrin aggregation | synergistically dissolving fibrin aggregates | – | significant improvement of survival rate in mice | becomes thinner and looser in structure | synergistically dissolving fibrin aggregates | becomes thinner and looser in structure | –
3 | B2 | – | – | – | – | – | – | – | significantly enhanced

From US20240352090A1, “USE OF PROTEIN SEQUENCE CAPABLE OF BINDING TO SUBSTRATE IN PREPARATION OF PRODUCT FOR INHIBITING FIBRIN ASSEMBLY” (NANJING UNIVERSITY, priority 2021, published 2024)
